Results reported in publication PMC7214410, “A deubiquitylase with an unusually high-affinity ubiquitin-binding domain from the scrub typhus pathogen Orientia tsutsugamushi” (Nature Communications, 2020).
Substitutions are numbered along the chain they refer to. Numbers in names are those of the source.

B1: OtDUB_(170–264) (the UBD) (domain or fragment)
chain: VNFLSENRMITSAAAALADTLLKNNNRITEGVLVDRIFDNKILSVQEKQQLLNNLLDNHIKENKSLTKESLTRMLASTHFVQQQANVLLNEKFNK
notes: source: E. coli Rosetta DE3, purified (glutathione resin, SEC)
B2: OtDUB_(1–177)-C135A (domain or fragment)
chain: MANDQDLSNPEYLYTEDDINQLLKHYLGLDDRISIIQHVALNESLLLKQTLHQVLSDIFSGMQEKAVIPLHTGNNHWVAMAIKKGMNDDIVISYNDPMGVSIDDKVTLINCIKELCPGAKINDLQTVQQTNVYDAGPFVVDNLIKMSQGQPILSTEEAKQQAQNIRQSQVNFLSENR
B3: OtDUB_(1–259) (domain or fragment)
chain: GMANDQDLSNPEYLYTEDDINQLLKHYLGLDDRISIIQHVALNESLLLKQTLHQVLSDIFSGMQEKAVIPLHTGNNHWVAMAIKKGMNDDIVISYNDPMGVSIDDKVTLINCIKELCPGAKINDLQTVQQTNVYDCGPFVVDNLIKMSQGQPILSTEEAKQQAQNIRQSQVNFLSENRMITSAAAALADTLLKNNNRITEGVLVDRIFDNKILSVQEKQQLLNNLLDNHIKENKSLTKESLTRMLASTHFVQQQANVLLN
notes: also called OTT_1962 DUB domain with VR-1/UBD; DUB-UBD segment; source: E. coli BL21(DE3), purified (Ni-NTA, TEV cleavage, HiTrap Q, Superdex 75)
B4: GST-UBD_(170–259) (domain or fragment)
chain: VNFLSENRMITSAAAALADTLLKNNNRITEGVLVDRIFDNKILSVQEKQQLLNNLLDNHIKENKSLTKESLTRMLASTHFVQQQANVLLN
notes: also called GST-tagged UBD; OtDUBUBD; source: E. coli BL21(DE3), purified (Ni-NTA, GSTrap HP)
B5: GST-UBD_(170–259) N222A/D226A (domain or fragment)
chain: B4 chain with N53A, D57A
notes: also called charge-neutralizing mutant; source: E. coli BL21(DE3), purified (Ni-NTA, GSTrap HP)
B6: GST-UBD_(170–259) F207D (domain or fragment)
chain: B4 chain with F38D
notes: source: E. coli BL21(DE3), purified (Ni-NTA, GSTrap HP)
B7: GST-UBD_(170–259) D204A/D208A (domain or fragment)
chain: B4 chain with D35A, D39A
notes: as for B5

Columns and labels:
Conditions in all cases: both partners purified
untagged ubiquitin [1] = biological target: T1, untagged ubiquitin (UniProt P0CG48 1-76); assay: ITC
T1 construct: also called mono-ubiquitin; Mono Ub; source: E. coli, purified (heated to 85 °C, SP-Sepharose, Superdex 75)

untagged ubiquitin [2] = biological target: T1, untagged ubiquitin; assay: ITC; remark: listed apart in the source
[3] = biological target: T2, human ubiquitin (His tag cleaved, for the co-crystal) (human, UniProt P0CG48 1-76); assay: crystal structure
T2 construct: also called free ubiquitin; UbS1; source: E. coli BL21(DE3), purified (Ni-NTA, TEV cleavage, HiTrap S, Superdex 75)

6His-ubiquitin = biological target: T3, 6His-ubiquitin (human, UniProt P0CG48 1-76); assay: pull-down; GST-tagged UBD (25 µM) mixed with His-tagged ubiquitin (75 µM) in 25 mM Tris-HCl pH 8.0, 100 mM NaCl, 0.1 mM TCEP; glutathione sepharose 4B, 1 h at 2 °C; eluted with glutathione, Coomassie
T3 construct: also called His-tagged human ubiquitin; His-tagged ubiquitin; source: E. coli BL21(DE3), purified (Ni-NTA)

Binder | binding result (6His-ubiquitin) | further results
B1 |  | Kd (untagged ubiquitin [1]): 0.0053 ± 0.0039 µM
B2 |  | Kd (untagged ubiquitin [2]): 6.3 ± 0.2 µM
B3 |  | binding result [3]: binds
B4 | binds | 
B5 | binds | 
B6 | binds | 
B7 | binds | 
